T1: His-Zyxin (wildtype) (UniProt Q15942 1-572)
T1 sequence (looked up): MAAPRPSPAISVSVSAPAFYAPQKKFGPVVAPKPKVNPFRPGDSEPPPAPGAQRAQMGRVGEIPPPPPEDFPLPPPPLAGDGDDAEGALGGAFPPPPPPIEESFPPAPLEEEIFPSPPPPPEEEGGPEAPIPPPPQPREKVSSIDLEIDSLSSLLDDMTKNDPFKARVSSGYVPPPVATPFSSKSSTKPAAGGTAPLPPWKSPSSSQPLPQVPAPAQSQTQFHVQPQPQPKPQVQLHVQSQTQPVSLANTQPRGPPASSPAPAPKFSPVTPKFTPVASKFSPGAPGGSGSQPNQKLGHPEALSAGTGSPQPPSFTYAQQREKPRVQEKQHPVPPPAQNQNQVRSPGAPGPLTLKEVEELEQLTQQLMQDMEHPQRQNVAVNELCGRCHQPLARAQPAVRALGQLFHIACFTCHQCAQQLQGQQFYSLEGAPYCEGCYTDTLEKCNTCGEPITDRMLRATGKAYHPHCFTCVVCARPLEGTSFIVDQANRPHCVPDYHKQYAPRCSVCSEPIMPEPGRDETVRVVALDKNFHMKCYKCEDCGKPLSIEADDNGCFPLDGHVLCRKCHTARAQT

B1: GST-14-3-3γ (natural protein, UniProt P61981 1-247, looked up)
chain: MVDREQLVQKARLAEQAERYDDMAAAMKNVTELNEPLSNEERNLLSVAYKNVVGARRSSWRVISSIEQKTSADGNEKKIEMVRAYREKIEKELEAVCQDVLSLLDNYLIKNCSETQYESKVFYLKMKGDYYRYLAEVATGEKRATVVESSEKAYSEAHEISKEHMQPTHPIRLGLALNYSVFYYEIQNAPEQACHLAKTAFDDAIAELDTLNEDSYKDSTLIMQLLRDNLTLWTSDQQDDDGGEGNN
B2: Zyxin: S169C (protein)
parent chain: MAAPRPSPAISVSVSAPAFYAPQKKFGPVVAPKPKVNPFRPGDSEPPPAPGAQRAQMGRVGEIPPPPPEDFPLPPPPLAGDGDDAEGALGGAFPPPPPPIEESFPPAPLEEEIFPSPPPPPEEEGGPEAPIPPPPQPREKVSSIDLEIDSLSSLLDDMTKNDPFKARVSSGYVPPPVATPFSSKSSTKPAAGGTAPLPPWKSPSSSQPLPQVPAPAQSQTQFHVQPQPQPKPQVQLHVQSQTQPVSLANTQPRGPPASSPAPAPKFSPVTPKFTPVASKFSPGAPGGSGSQPNQKLGHPEALSAGTGSPQPPSFTYAQQREKPRVQEKQHPVPPPAQNQNQVRSPGAPGPLTLKEVEELEQLTQQLMQDMEHPQRQNVAVNELCGRCHQPLARAQPAVRALGQLFHIACFTCHQCAQQLQGQQFYSLEGAPYCEGCYTDTLEKCNTCGEPITDRMLRATGKAYHPHCFTCVVCARPLEGTSFIVDQANRPHCVPDYHKQYAPRCSVCSEPIMPEPGRDETVRVVALDKNFHMKCYKCEDCGKPLSIEADDNGCFPLDGHVLCRKCHTARAQT

Columns and labels:
His-Zyxin (wildtype) = target: T1, His-Zyxin (wildtype); test: pull-down
[1] = mCherry-Zyxin microscopy, U2OS, ± GFP-14-3-3γ; conditions: glycan changed form; control: wild type
[2] = GFP-Zyxin1–350 microscopy, U2OS, ± mCherry-14-3-3γ; conditions: glycan changed form; control: Zyxin (1–350), Ser-169

| Binder | binding result (His-Zyxin (wildtype)) | other: 14-3-3γ-induced nuclear localisation [1] | other: 14-3-3γ-induced nuclear localisation [2] |
| --- | --- | --- | --- |
| B1 | binds | – | – |
| B2 | – | no change | no change |

Source: paper PMC8988012 (The Journal of Biological Chemistry, 2022)
